Values of other authors as cited in patent US20200069786A1, “COMPOSITION AND PROCESS FOR PREPARING VACCINE” (TREOS BIO ZRT., priority 2018, published 2020).
Where two headings read alike, the source gives them in different places.

Test system: TSA
[1] = TSA expression rate in GASTRIC cancer
[2] = TSA expression rate in LUNG cancer
[3] = TSA expression rate in Cervical cancer
[4] = TSA expression rate in MELANOMA

B1: CT46 (protein, UniProt Q86X24 1-394, looked up)
HORMA domain-containing …: MATAQLQRTPMSALVFPNKISTEHQSLVLVKRLLAVSVSCITYLRGIFPECAYGTRYLDDLCVKILREDKNCPGSTQLVKWMLGCYDALQKKYLRMVVLAVYTNPEDPQTISECYQFKFKYTNNGPLMDFISKNQSNESSMLSTDTKKASILLIRKIYILMQNLGPLPNDVCLTMKLFYYDEVTPPDYQPPGFKDGDCEGVIFEGEPMYLNVGEVSTPFHIFKVKVTTERERMENIDSTILSPKQIKTPFQKILRDKDVEDEQEHYTSDDLDIETKMEEQEKNPASSELEEPSLVCEEDEIMRSKESPDLSISHSQVEQLVNKTSELDMSESKTRSGKVFQNKMANGNQPVKSSKENRKRSQHESGRIVLHHFDSSSQESVPKRRKFSEPKEHI
- TSA Expression Rate (ER) (BREAST): 29%
- TSA Expression Rate (ER) (LUNG): 47%
- Expression Rate (ER) % (TSA expression rate in BLADDER cancer): 20%
- Expression Rate (ER) % (TSA expression rate in CRC): 7%
- Expression Rate (ER) % (TSA expression rate in Esophageal): 35%

B2: FBXO39 (protein, UniProt Q8N4B4 1-442, looked up)
F-box only protein 39: MDEESELIQPQDQSCWAFLPDLCLCRVFWWLGDRDRSRAALVCRKWNQMMYSAELWRYRTITFSGRPSRVHASEVESAVWYVKKFGRYLEHLEVKFMNPYNAVLTKKFQVTMRGLLSCLSKSNNRLKSLSIQYLELDRLVWRNSIRSSFISSLSFFLKKMGKRLDYLNLKGARLTVEQGCQILDSLSYMRNENVISELNIEDYFSHHLAVYNSPQFKKTMSTFHNLVSLNLNYNCISDELLENLCENASTLRTINIKCHVHDPHGQVIWGMSWAKLARQATNLKVNFFFERIMKYERLARILLQEIPIRSISLRSCYFSDPDCSMRPTLIDLLPTFRHTLQKLTCEFNNNHESLDEELHLLIISCRKLFYFKIWAFLDVSFVERILKSQKERQCALRVFKARIYTNRYETNEEDKTLQEIYRKYRKLIESELSYFVIVYSVM
- TSA Expression Rate (ER) (BREAST): 38%
- Expression Rate (ER) % (TSA expression rate in CRC): 39%
- Expression Rate (ER) % [1]: 4%
- Expression Rate (ER) % [2]: 0%

B3: DKKL1 (protein, UniProt Q9UK85 31-242, looked up)
Dickkopf-like protein 1: APIHDADAQESSLGLTGLQSLLQGFSRLFLKGNLLRGIDSLFSAPMDFRGLPGNYHKEENQEHQLGNNTLSSHLQIDKMTDNKTGEVLISENVVASIQPAEGSFEGDLKVPRMEEKEALVPIQKATDSFHTELHPRVAFWIIKLPRRRSHQDALEGGHWLSEKRHRLQAIRDGLRKGTHKDVLEEGTESSSHSRLSPRKTHLLYILRPSRQL
- TSA Expression Rate (ER) (BREAST): 20%
- TSA Expression Rate (ER) (OVARIAN): 57%
- TSA Expression Rate (ER) (THYROID): 0%
- Expression Rate (ER) % (TSA expression rate in CRC): 0%
- Expression Rate (ER) % [3]: 33%
- Expression Rate (ER) % (TSA expression rate in Kidney): 0%
- Expression Rate (ER) % [2]: 12%
- Expression Rate (ER) % [4]: 25%
- Expression Rate (ER) % (TSA expression rate in PROSTATE cancer): 13%

B4: CEP55 (protein, UniProt Q53EZ4 1-464, looked up)
Centrosomal protein of 55 kDa: MSSRSTKDLIKSKWGSKPSNSKSETTLEKLKGEIAHLKTSVDEITSGKGKLTDKERHRLLEKIRVLEAEKEKNAYQLTEKDKEIQRLRDQLKARYSTTTLLEQLEETTREGERREQVLKALSEEKDVLKQQLSAATSRIAELESKTNTLRLSQTVAPNCFNSSINNIHEMEIQLKDALEKNQQWLVYDQQREVYVKGLLAKIFELEKKTETAAHSLPQQTKKPESEGYLQEEKQKCYNDLLASAKKDLEVERQTITQLSFELSEFRRKYEETQKEVHNLNQLLYSQRRADVQHLEDDRHKTEKIQKLREENDIARGKLEEEKKRSEELLSQVQFLYTSLLKQQEEQTRVALLEQQMQACTLDFENEKLDRQHVQHQLHVILKELRKARNQITQLESLKQLHEFAITEPLVTFQGETENREKVAASPKSPTAALNESLVECPKCNIQYPATEHRDLLVHVEYCSK
- TSA Expression Rate (ER) (LUNG): 94%

B5: GASZ (protein, UniProt Q8WWH4 1-475, looked up)
Ankyrin repeat, SAM and basic …: MAASALRGLPVAGGGESSESEDDGWEIGYLDRTSQKLKRLLPIEEKKEKFKKAMTIGDVSLVQELLDSGISVDSNFQYGWTPLMYAASVANAELVRVLLDRGANASFEKDKQSILITACSAHGSEEQILKCVELLLSRNADPNVACRRLMTPIMYAARDGHTQVVALLVAHGAEVNTQDENGYTALTWAARQGHKNIVLKLLELGANKMLQTKDGKMPSEIAKRNKHHEIFNLLSFTLNPLEGKLQQLTKEDTICKILTTDSDREKDHIFSSYTAFGDLEVFLHGLGLEHMTDLLKERDITLRHLLTMREDEFTKNGITSKDQQKILAALKELQVEEIQFGELSEETKLEISGDEFLNFLLKLNKQCGHLITAVQNVITELPVNSQKITLEWASPQNFTSVCEELVNNVEDLSEKVCKLKDLIQKLQNERENDPTHIQLREEVSTWNSRILKRTAITICGFGFLLFICKLTFQRK
- TSA Expression Rate (ER) (LUNG): 29%
- TSA Expression Rate (ER) (THYROID): 13%
- Expression Rate (ER) % (TSA expression rate in CRC): 22%
- Expression Rate (ER) % [3]: 50%
- Expression Rate (ER) % [1]: 0%
- Expression Rate (ER) % [4]: 17%

B6: NY-BR-1 (protein, UniProt Q9BXX3 1-1397, looked up)
Ankyrin repeat …: MEEISAAAVKVVPGPERPSPFSQLVYTSNDSYIVHSGDLRKIHKAASRGQVRKLEKMTKRKKTINLNIQDAQKRTALHWACVNGHEEVVTFLVDRKCQLDVLDGEHRTPLMKALQCHQEACANILIDSGADINLVDVYGNTALHYAVYSEILSVVAKLLSHGAVIEVHNKASLTPLLLSITKRSEQIVEFLLIKNANANAVNKYKCTALMLAVCHGSSEIVGMLLQQNVDVFAADICGVTAEHYAVTCGFHHIHEQIMEYIRKLSKNHQNTNPEGTSAGTPDEAAPLAERTPDTAESLVEKTPDEAAPLVERTPDTAESLVEKTPDEAASLVEGTSDKIQCLEKATSGKFEQSAEETPREITSPAKETSEKFTWPAKGRPRKIAWEKKEDTPREIMSPAKETSEKFTWAAKGRPRKIAWEKKETPVKTGCVARVTSNKTKVLEKGRSKMIACPTKESSTKASANDQRFPSESKQEEDEEYSCDSRSLFESSAKIQVCIPESIYQKVMEINREVEEPPKKPSAFKPAIEMQNSVPNKAFELKNEQTLRADPMFPPESKQKDYEENSWDSESLCETVSQKDVCLPKATHQKEIDKINGKLEESPNKDGLLKATCGMKVSIPTKALELKDMQTFKAEPPGKPSAFEPATEMQKSVPNKALELKNEQTLRADEILPSESKQKDYEENSWDTESLCETVSQKDVCLPKAAHQKEIDKINGKLEGSPVKDGLLKANCGMKVSIPTKALELMDMQTFKAEPPEKPSAFEPAIEMQKSVPNKALELKNEQTLRADEILPSESKQKDYEESSWDSESLCETVSQKDVCLPKATHQKEIDKINGKLEESPDNDGFLKAPCRMKVSIPTKALELMDMQTFKAEPPEKPSAFEPAIEMQKSVPNKALELKNEQTLRADQMFPSESKQKKVEENSWDSESLRETVSQKDVCVPKATHQKEMDKISGKLEDSTSLSKILDTVHSCERARELQKDHCEQRTGKMEQMKKKFCVLKKKLSEAKEIKSQLENQKVKWEQELCSVRLTLNQEEEKRRNADILNEKIREELGRIEEQHRKELEVKQQLEQALRIQDIELKSVESNLNQVSHTHENENYLLHENCMLKKEIAMLKLEIATLKHQYQEKENKYFEDIKILKEKNAELQMTLKLKEESLTKRASQYSGQLKVLIAENTMLTSKLKEKQDKEILEAEIESHHPRLASAVQDHDQIVTSRKSQEPAFHIAGDACLQRKMNVDVSSTIYNNEVLHQPLSEAQRKSKSLKINLNYAGDALRENTLVSEHAQRDQRETQCQMKEAEHMYQNEQDNVNKHTEQQESLDQKLFQLQSKNMWLQQQLVHAHKKADNKSKITIDIHFLERKMQHHLLKEKNEEIFNYNNHLKNRIYQYEKEKAETENS
- TSA Expression Rate (ER) (BREAST): 47%
- Expression Rate (ER) % (TSA expression rate in HEAD and NECK): 2%

B7: SPAG8 (protein, UniProt Q99932 1-485, looked up)
Sperm-associated antigen 8: METNESTEGSRSRSRSLDIQPSSEGLGPTSEPFPSSDDSPRSALAAATAAAAAAASAAAATAAFTTAKAAALSTKTPAPCSEFMEPSSDPSLLGEPCAGPGFTHNIAHGSLGFEPVYVSCIAQDTCTTTDHSSNPGPVPGSSSGPVLGSSSGAGHGSGSGSGPGCGSVPGSGSGPGPGSGPGSGPGHGSGSHPGPASGPGPDTGPDSELSPCIPPGFRNLVADRVPNYTSWSQHCPWEPQKQPPWEFLQVLEPGARGLWKPPDIKGKLMVCYETLPRGQCLLYNWEEERATNHLDQVPSMQDGSESFFFRHGHRGLLTMQLKSPMPSSTTQKDSYQPPGNVYWPLRGKREAMLEMLLQHQICKEVQAEQEPTRKLFEVESVTHHDYRMELAQAGTPAPTKPHDYRQEQPETFWIQRAPQLPGVSNIRTLDTPFRKNCSFSTPVPLSLGKLLPYEPENYPYQLGEISSLPCPGGRLGGGGGRMTPF
- TSA Expression Rate (ER) (BREAST): 29%
- TSA Expression Rate (ER) (LUNG): 43%

B8: ZNF645 (protein, UniProt Q8N7E2 1-425, looked up)
E3 ubiquitin-protein ligase …: MNKMPAGEQECEYNKEGKYYSKGVKLVRKKKKIPGYRWGDIKINIIGEKDDLPIHFCDKCDLPIKIYGRIIPCKHAFCYHCANLYDKVGYKVCPRCRYPVLRIEAHKRGSVFMCSIVQQCKRTYLSQKSLQAHIKRRHKRARKQVTSASLEKVRPHIAPPQTEISDIPKRLQDRDHLSYIPPEQHTMVSLPSVQHMLQEQHNQPHKDIQAPPPELSLSLPFPIQWETVSIFTRKHGNLTVDHIQNNSDSGAKKPTPPDYYPECQSQPAVSSPHHIIPQKQHYAPPPSPSSPVNHQMPYPPQDVVTPNSVRSQVPALTTTYDPSSGYIIVKVPPDMNSPPLRAPQSQNGNPSASEFASHHYNLNILPQFTENQETLSPQFTQTDAMDHRRWPAWKRLSPCPPTRSPPPSTLHGRSHHSHQRRHRRY
- TSA Expression Rate (ER) (LUNG): 68%

B9: FSIP1 (protein, UniProt Q8NA03 1-581, looked up)
Fibrous sheath-interacting …: MDIIKGNLDGISKPASNSRIRPGSRSSNASLEVLSTEPGSFKVDTASNLNSGKEDHSESSNTENRRTSNDDKQESCSEKIKLAEEGSDEDLDLVQHQIISECSDEPKLKELDSQLQDAIQKMKKLDKILAKKQRREKEIKKQGLEMRIKLWEEIKSAKYSEAWQSKEEMENTKKFLSLTAVSEETVGPSHEEEDTFSSVFHTQIPPEEYEMQMQKLNKDFTCDVERNESLIKSGKKPFSNTEKIELRGKHNQDFIKRNIELAKESRNPVVMVDREKKRLVELLKDLDEKDSGLSSSEGDQSGWVVPVKGYELAVTQHQQLAEIDIKLQELSAASPTISSFSPRLENRNNQKPDRDGERNMEVTPGEKILRNTKEQRDLHNRLREIDEKLKMMKENVLESTSCLSEEQLKCLLDECILKQKSIIKLSSERKKEDIEDVTPVFPQLSRSIISKLLNESETKVQKTEVEDADMLESEECEASKGYYLTKALTGHNMSEALVTEAENMKCLQFSKDVIISDTKDYFMSKTLGIGRLKRPSFLDDPLYGISVSLSSEDQHLKLSSPENTIADEQETKDAAEECKEP
- TSA Expression Rate (ER) (BREAST): 42%
